From the nanobody polyreactivity screen of Harvey et al. (2022)

Test: yeast display, Sf9 membrane polyspecificity reagent, FACS + sequencing; frameworks hold sequencing errors
Procedure, shortened: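 In a synthetic yeast display library (Saccharomyces cerevisiae BJ5465), nanobody expression was induced with galactose for 36–48 hours. FACS gates were set low and high (top ~1%) using anti-HA fluorescence for expression and streptavidin fluorescence for binding of the Sf9 membrane reagent. Each polyreactivity label is drawn from the gate of origin.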

Sequence | polyreactivity (PSR sort gate)
QVQLVESGGGLVQAGGTLRLSCSATGYIFWSYAMGGYRQAPGKERELVAGITASGGSTYYADSVKGRFTISRDNAKNTVYLQMNSLKPEDTAVSYCAVALRSTPRTREVRPSPRVYYWGQGTQVTVSS | high polyreactivity
QVQLVESGGGLVQAGGTLRLTCAASGSIFHWNTMGWYRHAPGKESELFATITQRGGSTYYADSVKARFTLSRDNAKNTVYLQMNSLKPEDTAVYYCAAAIYRASRRRTSYSYDYWGQGTQVTVSS | high polyreactivity
QVQLVESGGGLVQAGGTLSLSCAASGFIFYRTARGWSRQAPGKDRELVAGISRVGSTYYADSVKGRFTISRDNAKNTVYLQMNSLKPEDTAVDYCAARSGYFYGYGYWGQGTQVTVSS | high polyreactivity
QVQLVESGGGLVQAGRRLRLSCAASGSTFGYYAMGWYRQAPGKERELVAAITSGATTNYADSVKGRFTISRDNAKNTVYLQMNSLKPEDTAVYYCAAGFQTRTPLNEFDNWGQGTQVTVSS | low polyreactivity
QVQLVESGGGLVQAGRSLRISCAASGSIFVNNAMGWYRQAPGKERELVAAISLSGGSTYYADSVTGRFTISRDTAKNTVYLQMTSLKPEDTAVYYCATRRSHYGKYDYWGQGTQVTVSS | high polyreactivity
QVQLVESGGGLVQAGRSLRLICAASGFTSHVYAMGWYRQAPGKERELVAAISSGSSTYYADSVKGRFTISRDNAKNTVYLQRNSLKPEDTAVYYCATTHKTLRRYESWGQGTQVTVSS | low polyreactivity
QVQLVESGGGLVQAGRSLRLSCAASGFIFRRYAMGWYRQAPGKEREFVAAISSGDDTDYADSVKGRFTISRDNAKNTVYLQMNSLKPEDTAVYYCAADHRYSVKYYYWGQGTQVTVSS | low polyreactivity
QVQLVESGGGLVQAGRSLRLSCAASGFIFSGNVMGWYRQAPGKERELVAAITSSGGSTYYADSVKGRFTISRDNAKNTVYLQMNSLKPEDTAVYYCATRYGGRYYWGQGTQVTVSS | high polyreactivity
QVQLVESGGGLVQAGRSLRLSCAASGFTFGYYAMGWYRQPPGKERELVAAISWNGGRTYYADSVKGRFTISRDNAKNTVYLQMISLKPEDTAVYYCAADYRFYSPTQYTYDYWGQGTQVTVSS | high polyreactivity
QVQLVESGGGLVQAGRSLRLSCAASGFTFYYNAMGWYRQAPGKERELVAAISSGGSTYYADSVKGRFTISRDNAKNTVYLQMNSLKPEDTAVYYCAADSLYYRYDFWGQGTQVTVSS | low polyreactivity
QVQLVESGGGLVQAGRSLRLSCAASGITFGRNTMGWYRQAPGKERELVAAIDSGGNTYADSVKGRFTISRDNAKNTVYLQMNSLKPEDTAVYYCAVDGGEFSSYGYWGQGTQVSVSS | low polyreactivity
QVQLVESGGGLVQAGRSLRLSCAASGITFIYYAMGWYRQAPGKESELVAAISKSGGRTYYADSVKGRFTISRDNAKNTVYLQMNSLKPEDTAVYYCNKLVGDDTDLYDYWGQGTQVTVSS | high polyreactivity
QVQLVESGGGLVQAGRSLRLSCAASGRIFSYNAMGWYRQAPGKETELVAAITFSGGRTYYADSVKGRFTISRDNAKNTVYLQMNSLKPEDTAVYYCNAYWQGYGYDYWGQGTQVTVSS | low polyreactivity
QVQLVESGGGLVQAGRSLRLSCAASGSPLYSYAMGWYRQAPGKEREFVAAITSDDGSTYYADSVKGRFTISRDNAKNTVYLPLTSLKPEDTAVYYCATAASVEYNYWGQCTQVTVSS | low polyreactivity
QVQLVESGGGLVQAGRSLRLSCAASGSTFSWNTMGWYRPAPGIERELVAAINSGGSTYYADSVKGRFTISRDNAKNTVYLQMNSLKPEDTAFYYCAARTKYYGRFDYWGQGTQVTVCS | low polyreactivity
QVQLVESGGGLVQAGRSLRLSCAASGSTFWFYAMGWYRQAPGKERELVASINSGGSTYYADSVKGRFTISRDNAKNTVYLQMNSLKPEDTAVFYCAADAYSWWGRWERYPYTTMYYWGQGTQVTVSS | low polyreactivity
QVQLVESGGGLVQAGRSLRLSCAASGSTFYYYTMGWYRQEPGKERELVAAISFIGGSTYYADSVKGRFTISRDNAKNTVYLQMNSLKPEDTAVYYCAAESYPLSYSSATLSPSYEYWGQGTQVTVSS | low polyreactivity
QVQLVESGGGLVQAGRSLRLSCAASGSTLQDNAMGWYRQAPGKERELVAAITLNGGSTYYADSVKRRFTISRDHAKNTVYLPMNSLKPEDTAVYYCAAEYLYVGYWFDYWGQGTQVTVSS | high polyreactivity
QVQLVESGGGLVQAGRSLRLSCAASGSTYSLDAMGWYRQAPGKERELVAAISWSDGSTYYADSVKGRFTISRDNAKNTVYLLMNSLKPEDTAVYYCGADSTVRPYVHSGDYWGQCTQVTVSS | low polyreactivity
QVQLVESGGGLVQAGRSLRLSCAASGYTFSRYTMGWYRQAPGKEWELVAAISSSGGSTYADSVKGRFTISRDNAKNTVYLQMTSLKPEDTGVYYCNRYYRRATKVGDWGQGTQVTVSS | high polyreactivity
QVQLVESGGGLVQAGRSLRLSCAASGYTIRYYAMGWYRQAPGKERELVAAITNRGGTYYADSVKGRFTISRDNAKNTVYLQLNSLKPEDNAVYYCAARYYWIDFKFGGPRDYWGQGTQVTVSS | high polyreactivity
QVQLVESGGGLVQAGRSLRLSCAASVYILYHNAMGWYRQAPGKERELVAAISYSGGRTYYADSVKGRFTISRDNAKNTVYLQMNSLKPEDTSVYYCNALSVWRTGRGQEFDYWGQGTQVTVSS | high polyreactivity

Sequence | polyreactivity (PSR sort gate)
QVQLVESGGGLVQAGRSLRLSCASSGRIFWDYAMGWYRQAPGKERELVAAISWGSGRTYYADSVKGRFTISRDNAKNTVYLQMNSLKPADSAVDYCAARSSYRKMDYWGQGTQVTVSS | high polyreactivity
QVQLVESGGGLVQAGRSLRLSFADSGVIVTSNAMGWYRQAPGKEREFVADITSSDSTYYADSVKGRFTISRDNAKNTVYLQMNSLKPEDTAVYYCAARGTTVRAYGYGFGYWGQGTQVTVSS | low polyreactivity
QVQLVESGGGLVQAGRSLRLSSAASGNTFAGNAMGWYRQAPGKERELVAAISWSGTRTYYADSVKGRFTISRDNAKNTVYLQMNSLKPEDTAVYYCAKLSTNKEYYWGQGTQVTVSS | high polyreactivity
QVQLVESGGGLVQAGRSLRLTCAASGIIFIGNAMGWYRQATGKERELVAAISRRGGRTYYADSVKGRFTISRDNAKNTVYLQMFSLKPEDTAVYSCNAEITVNDDDYWGQGTQVTVSS | high polyreactivity
QVQLVESGGGLVQAGRSLRLTCAASGRIFRRYAMGWSRQAPGKERELVAAIRTSGGNTYYADSVKGRFTISRDNAKNTVYLQMNSLKPEDTAVYYCAAERGRLVAIASDYWGQGTQVTVSS | high polyreactivity
QVQLVESGGGLVQAGRSLRLTCAASGRTLGYNAMGWYRQPPGKERELVAAITYSGSRTYYADSVKGRFTISRDNAKNTVYLQMNSLKPEDTAVYYCAAGGYIAYYYYRFDYWGQGTQVTVSS | high polyreactivity
QVQLVESGGGLVQAGRSLRLTCAASGSTFSIYVMGWYRQAPGKERELVAAITWSDGIKYYADSVKGRFTISRDNAKNTVYLQMNSLKRDDTAVYYCRDSHPSYRPGTVRYDYLGQGTQVTVSS | low polyreactivity
QVQLVESGGGLVQAGSSLRLSCAASGRIFGYYAMGWYRQAPGKEREFVASITYSGGRTYYADSVKGRFTISRDNAKNTVYLQMNSLKPEDTAVYYCAKRQSFLGVSYDYWGQGTQVTVSS | high polyreactivity
QVQLVESGGGLVQAGVILRLSCAASGRIFIPYAMGWYIQAPGKERELVAAISYRGGSTYYADSVKGRFTISRDNAKNTVYLQMNSLKPEDTAVYYCANYDYWGQGTQVTVSS | high polyreactivity
QVQLVESGGGLVQAGVRLRLSCPASGITFEGYAMGWYRKAPGKERELVAAIRSSGTSTYYADSVKGRFTISRDNAKNTVYLQMNSLKPEDTAVYYCNRARSSSRYDYWGQGTKVTVSS | low polyreactivity
QVQLVESGGGLVQAGVSLRIRCAASGSIFFFNAMGWYRQAPGKEREFVAAITSSSGRTYYAYSVKVRFTISRDNAKNTVYLQMKSLKPEDTAVYYCAAQVPEDNETVDYWGQGTQVTVSS | low polyreactivity
QVQLVESGGGLVQAGVSLRLICAASGRIFALNTMGWYRQAPGKEREFVAAITTSGGSTYADSVKGRFTISRDNAKNTVYFQMNSLKPEYTAVYYFNKEYFHNWAPTYDYWGQGTQVTVSS | low polyreactivity
QVQLVESGGGLVQAGVSLRLSCAASGFIFPYYAMGWYRQAPGKERELVAAITRGGRTYYADSVKGRFTISRDNAKNTVYLQMNSLKPEDTAVYYCAARSVGKRGYDYWGLGTQVTVSS | high polyreactivity
QVQLVESGGGLVQAGVSLRLSCAASGFIIYGNAMGWYRQAPGKERELVAAINQTGSSTYADSVKGRFTISRDNAKNTVYLQMNSLKPEATAVYYCNKGSWYFFLYDYWGQGTQVTVSS | low polyreactivity
QVQLVESGGGLVQAGVSLRLSCAASGFTFDYYAMGWYRQAPGKERELVAAISWSGGSTYYADSVKGRFTISRDNAKNTVFLQMNSLKPEDTAVYYCAGGRPNPRGRGLAYDFWVQGTQVTVSS | high polyreactivity
QVQLVESGGGLVQAGVSLRLSCAASGFTFWRNAMGWYRQAPGKERELVAAISASGGSTYYADSVKGRFTISRDNAKNTVYLQMNSLKPEDTAVYYCAADTQGFYRYDYWGQGTQVTVSS | low polyreactivity
QVQLVESGGGLVQAGVSLRLSCAASGITFPYYTMGCYRQAPGKERELVAAITSGGSTNYADSVKGRFTISRDNAKNTVYLQMNSLKPEDTAVYYCDGVLWLFDYWGQGTQVTVSS | high polyreactivity
QVQLVESGGGLVQAGVSLRLSCAASGRIFAVNAMGWYRQAPGKERELVASIRWSGGSTYYADSVKGRFTISRDYAKNTVYLQMNSLKPEETAVYYCAAVIYLWGQGTQVTVSS | high polyreactivity
QVQLVESGGGLVQAGVSLRLSCAASGRTFFYNAMGWYRQAPGKERELVAAISSGGGYTYYADSVKGRFTISRDNAKNTVYLQMNSLKPEDTAVYYCAAASYRQPGYGYWGQGTQVTVSS | high polyreactivity
QVQLVESGGGLVQAGVSLRLSCAASGRTFGQYVMGWYRQAPGKERELVAAIRSGGSTYYADSVKGLFTISRDNAKNTVYIQLNSLKPEDTAVYYCNADSGPIDGRGGYWGQGTQVTVSS | low polyreactivity
QVQLVESGGGLVQAGVSLRLSCAASGRTFSSYAMGWYRQAPRKERELVPGISWRGGRTYYADSVKGRFTISRDNGKNSVYLQMNSLKREDTAVYYCNKVYRTYYGDYRFSGIPRYDYVGQGTQVTVSS | high polyreactivity
